B1: Ras-related protein Rab-6B (Homo sapiens), Q9NRW1 (parent)
chain: MSAGGDFGNPLRKFKLVFLGEQSVGKTSLITRFMYDSFDNTYQATIGIDFLSKTMYLEDRTVRLQLWDTAGQERFRSLIPSYIRDSTVAVVVYDITNLNSFQQTSKWIDDVRTERGSDVIIMLVGNKTDLADKRQITIEEGEQRAKELSVMFIETSAKTGYNVKQLFRRVASALPGMENVQEKSKEGMIDIKLDKPQEPPASEGGCSC
partner: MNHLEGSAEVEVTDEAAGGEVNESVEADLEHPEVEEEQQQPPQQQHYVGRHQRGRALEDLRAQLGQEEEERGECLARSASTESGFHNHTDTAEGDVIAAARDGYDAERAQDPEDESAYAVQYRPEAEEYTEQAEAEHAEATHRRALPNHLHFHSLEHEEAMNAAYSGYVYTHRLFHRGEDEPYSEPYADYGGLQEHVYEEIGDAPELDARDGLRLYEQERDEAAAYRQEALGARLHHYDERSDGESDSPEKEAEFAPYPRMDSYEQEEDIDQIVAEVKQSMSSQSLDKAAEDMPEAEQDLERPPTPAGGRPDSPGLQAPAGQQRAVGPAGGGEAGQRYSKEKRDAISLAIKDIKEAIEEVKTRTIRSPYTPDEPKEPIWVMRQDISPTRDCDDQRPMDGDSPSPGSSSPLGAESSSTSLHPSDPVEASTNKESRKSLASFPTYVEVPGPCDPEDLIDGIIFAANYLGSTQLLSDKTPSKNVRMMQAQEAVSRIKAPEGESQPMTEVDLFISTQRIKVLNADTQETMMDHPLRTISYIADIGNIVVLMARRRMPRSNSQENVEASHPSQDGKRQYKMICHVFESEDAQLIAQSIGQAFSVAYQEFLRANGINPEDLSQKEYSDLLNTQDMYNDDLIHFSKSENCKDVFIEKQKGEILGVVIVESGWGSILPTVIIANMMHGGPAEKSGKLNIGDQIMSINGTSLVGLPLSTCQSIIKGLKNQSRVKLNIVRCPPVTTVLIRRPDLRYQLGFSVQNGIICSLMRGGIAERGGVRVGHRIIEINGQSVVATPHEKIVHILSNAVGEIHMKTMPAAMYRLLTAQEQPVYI
B2: Ras-related protein Rab-6A (Homo sapiens), P20340-1 (parent)
chain: MSTGGDFGNPLRKFKLVFLGEQSVGKTSLITRFMYDSFDNTYQATIGIDFLSKTMYLEDRTVRLQLWDTAGQERFRSLIPSYIRDSTVAVVVYDITNVNSFQQTTKWIDDVRTERGSDVIIMLVGNKTDLADKRQVSIEEGERKAKELNVMFIETSAKAGYNVKQLFRRVAAALPGMESTQDRSREDMIDIKLEKPQEQPVSEGGCSC
partner: B1 partner
B3: Ras-related protein Rab-6A (Homo sapiens), P20340-1 (parent)
chain: B2 chain
partner: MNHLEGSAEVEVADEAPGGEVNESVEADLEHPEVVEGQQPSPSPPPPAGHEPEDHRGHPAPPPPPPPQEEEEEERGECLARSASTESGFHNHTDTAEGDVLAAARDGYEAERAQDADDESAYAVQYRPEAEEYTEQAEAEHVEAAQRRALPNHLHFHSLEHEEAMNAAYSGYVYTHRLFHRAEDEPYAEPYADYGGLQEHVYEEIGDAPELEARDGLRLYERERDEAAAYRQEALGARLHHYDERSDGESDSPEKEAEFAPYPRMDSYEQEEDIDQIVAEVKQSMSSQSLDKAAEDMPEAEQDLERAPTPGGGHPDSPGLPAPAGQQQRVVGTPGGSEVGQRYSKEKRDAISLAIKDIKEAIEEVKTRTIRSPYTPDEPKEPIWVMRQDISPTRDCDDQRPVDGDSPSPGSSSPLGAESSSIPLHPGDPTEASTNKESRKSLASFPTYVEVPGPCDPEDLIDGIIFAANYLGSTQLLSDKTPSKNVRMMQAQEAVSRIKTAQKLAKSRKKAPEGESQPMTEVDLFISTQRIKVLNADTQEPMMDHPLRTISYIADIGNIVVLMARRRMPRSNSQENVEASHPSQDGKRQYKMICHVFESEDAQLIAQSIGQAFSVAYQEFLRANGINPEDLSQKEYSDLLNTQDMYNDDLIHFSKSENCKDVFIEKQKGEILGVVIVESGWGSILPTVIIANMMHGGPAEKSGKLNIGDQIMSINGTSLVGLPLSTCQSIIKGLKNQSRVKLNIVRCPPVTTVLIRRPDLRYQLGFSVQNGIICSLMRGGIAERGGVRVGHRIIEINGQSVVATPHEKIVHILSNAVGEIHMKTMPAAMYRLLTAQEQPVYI

Variants of: B1
Conditions: with APBA1, Q02410-2

| Variant | effect of a mutation on the interaction |
| --- | --- |
| T27N | disrupting interaction |

Variants of: B2
Conditions: with APBA1, Q02410-2

| Variant | effect of a mutation on the interaction |
| --- | --- |
| T27N | disrupting interaction |

Variants of: B3
Conditions: with apba1_mouse Apba1, B2RUJ5

| Variant | effect of a mutation on the interaction |
| --- | --- |
| T27N | disrupting interaction |

Reference: IntAct's records for PubMed 23737971
